Reference: patent US20210395716

Target: β-amyloid peptide (1-42), P05067
Sequence (P05067 whole entry, looked up, tested part not stated): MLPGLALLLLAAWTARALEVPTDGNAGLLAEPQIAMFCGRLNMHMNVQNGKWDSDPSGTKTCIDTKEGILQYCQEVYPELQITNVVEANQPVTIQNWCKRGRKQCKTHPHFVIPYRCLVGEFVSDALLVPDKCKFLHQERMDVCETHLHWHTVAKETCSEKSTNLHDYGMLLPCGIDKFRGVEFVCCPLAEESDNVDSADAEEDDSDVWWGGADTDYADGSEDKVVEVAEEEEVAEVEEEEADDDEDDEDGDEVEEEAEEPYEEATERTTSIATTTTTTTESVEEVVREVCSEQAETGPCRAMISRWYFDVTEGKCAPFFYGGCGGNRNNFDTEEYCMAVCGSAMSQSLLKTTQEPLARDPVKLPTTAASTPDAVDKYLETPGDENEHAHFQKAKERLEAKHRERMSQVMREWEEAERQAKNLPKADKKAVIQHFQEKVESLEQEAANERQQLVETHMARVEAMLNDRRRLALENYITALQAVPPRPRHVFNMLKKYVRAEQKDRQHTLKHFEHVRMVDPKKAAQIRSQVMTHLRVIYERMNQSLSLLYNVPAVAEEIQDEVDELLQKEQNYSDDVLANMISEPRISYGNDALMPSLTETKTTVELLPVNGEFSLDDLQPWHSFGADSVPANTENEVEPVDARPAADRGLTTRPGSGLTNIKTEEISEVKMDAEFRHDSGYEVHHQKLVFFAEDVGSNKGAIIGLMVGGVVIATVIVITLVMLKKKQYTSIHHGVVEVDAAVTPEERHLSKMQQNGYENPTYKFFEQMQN

B1: Fab-neprilysin (humanized 3E10 Fab fused through a Gly-Ser linker to the human neprilysin ectodomain) (protein)
chain 1: EVQLQESGGGVVQPGGSLRLSCAASGFTFSNYGMHWIRQAPGKGLEWVSYISSGSSTIYYADSVKGRFTISRDNSKNTLYLQMNSLRSEDTAVYYCARRGLLLDYWGQGTLVTVSSASTKGPSVFPLAPSSKSTSGGTAALGCLVKDYFPEPVTVSWNSGALTSGVHTFPAVLQSSGLYSLSSVVTVPSSSLGTQTYICNVNHKPSNTKVDKKVEPKSCDKTHTGGSGGGSGGGSGGYDDGICKSSDCIKSAARLIQNMDATTEPCTDFFKYACGGWLKRNVIPETSSRYGNFDILRDELEVVLKDVLQEPKTEDIVAVQKAKALYRSCINESAIDSRGGEPLLKLLPDIYGWPVATENWEQKYGASWTAEKAIAQLNSKYGKKVLINLFVGTDDKNSVNHVIHIDQPRLGLPSRDYYECTGIYKEACTAYVDFMISVARLIRQEERLPIDENQLALEMNKVMELEKEIANATAKPEDRNDPMLLYNKMTLAQIQNNFSLEINGKPFSWLNFTNEIMSTVNISITNEEDVVVYAPEYLTKLKPILTKYSARDLQNLMSWRFIMDLVSSLSRTYKESRNAFRKALYGTTSETATWRRCANYVNGNMENAVGRLYVEAAFAGESKHVVEDLIAQIREVFIQTLDDLTWMDAETKKRAEEKALAIKERIGYPDDIVSNDNKLNNEYLELNYKEDEYFENIIQNLKFSQSKQLKKLREKVDKDEWISGAAVVNAFYSSGRNQIVFPAGILQPPFFSAQQSNSLNYGGIGMVIGHEITHGFDDNGRNFNKDGDLVDWWTQQSASNFKEQSQCMVYQYGNFSWDLAGGQHLNGINTLGENIADNGGLGQAYRAYQNYIKKNGEEKLLPGLDLNHKQLFFLNFAQVWCGTYRPEYAVNSIKTDVHSPGNFRIIGTLQNSAEFSEAFHCRKNSYMNPEKKCRVW
chain 2: DIQMTQSPSSLSASVGDRVTISCRASKSVSTSSYSYMHWYQQKPEKAPKLLIKYASYLQSGVPSRFSGSGSGTDFTLTISSLQPEDVATYYCQHSREFPWTFGAGTKLELKRTVAAPSVFIFPPSDEQLKSGTASVVCLLNNFYPREAKVQWKVDNALQSGNSQESVTEQDSKDSTYSLSSTLTLSKADYEKHKVYACEVTHQGLSSPVTKSFNRGEC
Abeta HPLC, per hr. (sample FabNEP 2.5): 0.5 per hr.
Abeta HPLC, per hr. (sample FabNEP 3.6, pH 3.6 elution pool): 0.61 per hr.
Abeta HPLC, per hr. (sample FabNEP 4.0, pH 4.0 elution pool): 0.66 per hr.
Abeta HPLC, rate (sample FabNEP 2.5) (million sq unt/min): 0.0104
Abeta HPLC, rate (sample FabNEP 3.6, pH 3.6 elution pool) (million sq unt/min): 0.0137
Abeta HPLC, rate (sample FabNEP 4.0, pH 4.0 elution pool) (million sq unt/min): 0.0175
Abeta HPLC, units/µL (sample FabNEP 2.5): 0.001 units/µL
Abeta HPLC, units/µL (sample FabNEP 3.6, pH 3.6 elution pool): 0.0547 units/µL
Abeta HPLC, units/µL (sample FabNEP 4.0, pH 4.0 elution pool): 0.035 units/µL
Abeta HPLC, units/µg (sample FabNEP 2.5): 0.008 units/µg
Abeta HPLC, units/µg (sample FabNEP 3.6, pH 3.6 elution pool): 0.01 units/µg
Abeta HPLC, units/µg (sample FabNEP 4.0, pH 4.0 elution pool): 0.011 units/µg
degradation of β-amyloid (1-42): The Fab portion does not inhibit degradation of β-amyloid (1-42).
degradation of β-amyloid peptide (1-42), HPLC: Fab-NEP degrades β-amyloid peptide (1-42). The Fab conjugate does not appear to inhibit neprilysin activity, as compared to yeast NEP (yNEP).
